According to patent US20100021473A1 (DOMANTIS, published 2010):

T1: NCA on H647 cells (UniProt P40199 35-320, limits assumed)
T1 construct: whole, on cells; Its identity is an inference
T1 sequence (looked up): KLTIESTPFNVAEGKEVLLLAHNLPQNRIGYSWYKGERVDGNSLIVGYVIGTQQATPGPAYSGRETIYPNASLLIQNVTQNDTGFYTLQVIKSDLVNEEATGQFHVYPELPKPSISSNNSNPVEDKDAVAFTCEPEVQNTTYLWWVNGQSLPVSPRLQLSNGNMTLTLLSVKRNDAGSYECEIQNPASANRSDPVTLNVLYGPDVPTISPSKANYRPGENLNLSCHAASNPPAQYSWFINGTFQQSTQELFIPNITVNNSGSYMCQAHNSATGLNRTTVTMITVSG


Biological target: T2, CD56 immobilised on Biacore CM5 chip (UniProt P13591 20-718, limits assumed)
T2 construct: also called DOM14
Experiment: Biacore, CD56 immobilised
Description: (§1) Anti-CD38, anti-CEA and anti-CD56 dAbs that were identified as FACS positive clones were in addition analysed by Biacore using the following procedure. The CM5 chip surface was activated by flushing 1:1 EDC/NHS (0.4M1-ethyl-3-(3-dimenthylaminopropyl)-carbodiimide in water; 0.1 M N-hydroxysuccinimide in water) at a flow rate of 5 uL/min for 10 minute contact time. CD38 was immobilised at 500 nM in Acetate buffer pH4 at 5 uL/min this was repeated until the RUs reached between 500 and 1000 (low density). CEA and CD56 were coupled in acetate buffer pH 4.5. Any excess reactive groups were deactivated by running 1M ethanolamine-HCl over the CM5 chip (again 5 uL/min for 7 mins). The affinities of the anti-CD38, anti-CEA and anti-CD56 dAbs were measured on the biacore as described above.

| Binder | binding result | Kd |
| --- | --- | --- |
| DOM14-23 (other, Anti-CD56 dAb) DIQMTQSPSSLSASVGDRVTITCRASQDIFPFLNWYQQKPGKAPELLIYRASILHSGVPSRFSGSGSGTDFTLTISSLQPEDFATYYCQQIARSPRTFGQGTKVEIKR | – | 100 to 200 nM |
| DOM14-70 (other, Anti-CD56 dAb monomer) DIQMTQSPSSLSASVGDRVTITCRASQEIGQWLNWYQQKPGKAPKLLIYWGSELQSGVPSRFSGSGSGTDFTLTISSLQPEDFATYYCQQVSRNPFTFGQGTKVEIKR | – | 500 to 800 nM |
| DOM14-63 (other, Anti-CD56 dAb monomer) DIQMTQSPSSLSASVGDRVTITCRASQNISRGLRWYQQKPGKAPKLLIYHASKLQSGVPSRFSGSGSGTDFTLTISSLQPEDFATYYCQQYKVFPGTFGQGTKVEIKR | – | 100 nM |

Now from value to binder:

| binding result | Kd | Binder |
| --- | --- | --- |
| no binding | – | DOM14-62 (other, Anti-CD56 dAb monomer) DIQMTQSPSSLSASVGDRVTITCRASQNISYHLVWYQQKPGKAPKLLIYSSSNLQSGVPSRFSGSGSGTDFTLTISSLQPEDLATYYCQQLASWPHTLGQGTKVEIKR |
| no binding | – | DOM14-57 (other, Anti-CD56 dAb monomer) DIQMTQSPSSLSASVGDRVTITCRASQQIDDYLNWYQQKPGKAPKLLIYWTSLLQSGVPSRFSGSGSGTDFTLTISSLQPEDFATYYCQQSAHRPFTFGQGTKVEIKR |
| no binding | – | DOM14-68 (other, Anti-CD56 dAb monomer) DIQMTQSPSSLSASVGDRVTITCRASQEISGELTWYQQKPGKAPKLLIYFSSILQSGVPSRFSGSGSGTDFTLTISSLQPEDFATYYCQQRKLRPYTFGQGTKVEIKR |

Biological target: T3, CD38 immobilised on Biacore CM5 chip (UniProt P28907 43-300, limits assumed)
T3 construct: also called DOM11
Experiment: Biacore, CD38 immobilised
Description: as §1
Affinity maturation libraries were created for the anti-CD38 dAbs DOM11-3 and DOM11-30 by error prone PCR. […] Initial screening was carried out by BIAcore (as described previously) and subsequently by FACS.

| Kd | Binder |
| --- | --- |
| 62 to 76 nM | DOM11-30-2 (other) DIQMTQSPSSLSASVGDRVTITCRTSQKIENDLAWYQQKPGKAPKLLIYYTSILQSGVPSRFSGSGSGTDFTLTISSLQPEDFATYYCQQRRYVPATFGQGTKVEIKR |
| 86 to 93 nM | DOM11-30-3 (other) DIQMTQSPSSLSASVGDRVTITCRASQKIENDLAWYQQKPGNAPKLLIYYTSILHSGVPSRFSGSGSGTDFTLTISSLQPEDFATYYCQQRRYVPATFGQGTKVEIKR |
| 19 nM | DOM11-30-1 (other) DIQMTQSPSSLSASVGDRVTITCRASLKIENDLAWYQQKPGKAPKLLIYYTSILQSGVPSRFSGSGSGTDFTLTISSLQPEDFATYYCQQRRYAPATFGQGTKVEIKR |
| 62 nM | DOM11-3-1 (other) DIQMTQSPSSLSASVGDRVTITCRASHNIDSRLSWYQQKPGKAPKLLIYRASVLQSGVPSRFRGSGSGTDFTLTISSLQPEDFATYYCQQWDMFPLSFGQGTKVEIKR |
| 130 to 160 nM | DOM11-3-2 (other) DIQMTQSPSSLSASVGDRVTITCRASQNIDSRLSWYQQKPGKAPKLLIYRTSVLQSGVPSRFSGSGSGTDFTLTISSLQPEDFATYYCQQWDMFPLMFGQGTKVEIKR |

Biological target: T1, NCA on H647 cells
Experiment: FACS on H647 cells (CEA-/NCA+)
Description: (§2) All dAbs were analysed by FACS on antigen positive and negative cell lines using the following method.
(§3) The determination of cell binding by FACS was carried out as follows: cells were centrifuged at 250 g for 5 minutes and the growth medium was removed. The cells were resuspended in FACS incubation buffer at 4° C. at a density of 2×10⁶ cells/ml. The cells were blocked by incubating for 15 minutes at 4° C. in FACS incubation buffer. Fifty microliters of 2× stock of primary antibody (anti-CD38 FITC, anti-CD138 FITC or mIgG1 FITC conjugated isotype control (all BD Biosciences) was added; or dAb was added to cells in FACS incubation buffer and incubated for 30-60 minutes at 4° C. The cells were then washed once in FACS incubation buffer. One hundred microliters of secondary antibody (rabbit anti-Vk) was added to cells in FACS incubation buffer and incubated 30-60 minutes at 4° C. The cells were washed once in FACS incubation buffer. Then 100 ul of 1× tertiary antibody was added to the cells in FACS incubation buffer and incubated for 30-60 mins at 4° C. (for dAbs the tertiary antibody is anti-rabbit FITC (Sigma)). The cells were washed twice in FACS incubation buffer. The cell pellet was resuspend in 200 ul FACS incubation buffer+viable cell marker (BD Viaprobe). The cells were then analyzed by flow cytometry.

| Binder | binding result |
| --- | --- |
| DOM13-93 (other, Anti-CEA dAb monomer) DIQMTQSPSSLSASVGDRVTITCRASQDIGNMLAWYQQKPGKAPKPLIYYASYLQSGVPSRFSGSGSGTDFTLTISSLQPEDFATYYCQQMRDYPVTFGQGTKVEIKR | no binding |
| DOM13-65 (other, Anti-CEA dAb monomer) DIQMTQSPSSLSASVGDRVTITCRASQSIGMLLSWYQQKPGKAPKLLIYAVSRLQSGVPSRFSGSGSGTDFTLTISSLQPEDYATYYCQQMQRPPITFGQGTKVEIKR | no binding |

Further lines, results first:

| binding result | Binder |
| --- | --- |
| no binding | DOM13-57 (other, Anti-CEA dAb monomer) DIQMTQSPSSLSASVGDRVTITCRASQGIMYHLRWYQQKPGKAPRLLIYHGSTLQSGVPARFSGSGSGTDFTLTISSLQPEDFATYYCQQTWNAPLTFGQGTKVEIKR |
| no binding | DOM13-58 (other, Anti-CEA dAb monomer) DIQMTQSPSSLSASVGDRVTITCRASQGIGNSLRWYQQKPGKAPKLLIYYSSHLQSGVPSRFSGSGSGTDFTLTISSLQPEDFATYYCQQIRTKPFTFGQGTKVEIKR |
| no binding | DOM13-95 (other, Anti-CEA dAb monomer) DIQMSQSPSSLSASVGDRVTITCRASQDIGNMLAWYQQKPGKAPKPLIYYASYLQSGVPSRFSGSGSGTDFTLTISSLQPEDFATYYCQQLGAKPHTFGQGTKVEIKR |
| no binding | DOM13-64 (other, Anti-CEA dAb monomer) DIQMTQSPSSLSASVGDRVTITCRASQSIGTLLNWYQQKPGKAPKLLIYASSRLQSGVPSRFSGSGSGTDFTLTISSLQPEDFATYYCQQMNRVPITFGQGTKVEIKR |

Biological target: T4, CD38 on cells (UniProt P28907 1-300)
T4 construct: whole, on cells; Endogenous CD38 on cell lines used in FACS or microscopy; also called DOM11; T10
Experiment: FACS on RPMI cells (CD38+/138+)
Description: as §2, §3

| binding result | Binder |
| --- | --- |
| binds | DOM11-32 (other, Anti-CD38 dAb monomer) DIQMTQSPSSLSASVGDRVTITCRASQWIGDSLVWYQQKPGKAPKLLIYFGSILQSGVPSRFSGSGSGTDFTLTISSLQPEDFATYYCQQHKTSPSTFGQGTKVEIKR |
| binds | DOM11-39 (other) DIQMTQSPSSLSASVGDRVTITCRASQPIDGNLRWYQQKPGKAPRLLIYFTSILQSGVPSRFSGSGSGTDFTLTISSLQPEDFATYYCQQHRHWPATFGQGTKVEIKR |
| binds | DOM11-24 (other, Anti-CD38 dAb monomer) DIQMTQSPSSLSASVGDRVTITCRASQEIHDYLSWYQQKPGKAPKLLIYLSSRLQSGVPSRFSGSGSGTDFTLTISSLQPEDFATYYCQQYHKGPYTFGQGTKVEIKR |
| binds | DOM11-38 (other, Anti-CD38 dAb monomer) DIQVTQSPSSLSASVGDRVTITCRASQEISSCLNWYQQKPGKAPKLLIYCTSVLQSGVPSRFSGSGSGTDFTLTISSLQPEDFATYYCQQRFGNPLTFGQGTKVEIKR |
| binds | DOM11-37 (other, Anti-CD38 dAb monomer) DIQMTQSPSSLSAFVGDRVTITCRASQDIEGQLRWYQQKPGKAPKLLIYFGSLLQSGVPSRFSGSGSGTVYTLTISSLQPEDFATYYCQQSHLFPATFGQGTKVEIKR |

Biological target: T5, CD38 and CD138 co-expressed on cells (CD38+/CD138+ double positive cells) (UniProt P28907 1-300; P18827 23-310)
T5 construct: whole, on cells; Two separate membrane proteins on the same cell, not a complex; also called RPMI8226; OPM2
Experiment: FACS cell binding titration on OPM2 cells (CD38+/CD138+), arithmetic mean fluorescence. The table prints no unit; the unit is taken from the x axis 'log conc in nm' (nanomolar).
Description: as §3
Anti-CD38 and anti-CD138 affinity matured dAbs were paired to create dual specific ligands by cloning an anti-CD38 dAb and an anti-CD138 dAb into a dual expression vector. To determine if the increased affinity of the monomers was reflected in increased binding affinity of the dual specific ligand, a range of the affinity matured anti-CD38 dAbs were paired with the anti-CD138 dAb DOM12-45, a range of affinity matured anti-CD138 dAbs were paired with anti-CD38 dAbs, and a range of affinity matured anti-CD38 dAbs and affinity matured anti-CD138 dAbs were paired. All dual specific ligands were expressed in E. coli and purified using protein L agarose followed by Resource S cation exchange chromatography when required. The binding affinity of the dual specific ligands was assessed by FACS as described previously. In this study, a range of concentrations was used to allow determination of EC50.

| EC50 | Binder |
| --- | --- |
| 13.8 nM | DOM 11-3-1/DOM 12-45-2 (bispecific antibody, V domains shown) V domain 1: DIQMTQSPSSLSASVGDRVTITCRASHNIDSRLSWYQQKPGKAPKLLIYRASVLQSGVPSRFRGSGSGTDFTLTISSLQPEDFATYYCQQWDMFPLSFGQGTKVEIKR V domain 2: DIQMTQSPSSLSASVGDRVTITCRASQDIGGRLRWYQQKPGKAPKLLIYHGSRLDSGVPSRFSGSRSGADFTLTISSLQPEDFATYYCQQQWYRPYTFGQGTKVEIKR |
